Measurements: the supplement of paper PMC9233669
Fewer inactive variants are shown than the library holds.

Assays:
[1] = test system: biotinyl-Phe-oxazolone; experiment: self-aminoacylation, catalytic enhancement (BFO) (fold over background); higher = more active; k-Seq, kA / k0A0; sequences stand for … in GGGAAUGGAUCCACAUCUACGAAUUC…UUCACUGCAGACUUGACGAAGCUG
Procedure, shortened: (§1)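 Mutagenized RNA pools (0.43 μM; 21-nt variable region) were treated with 2–1250 μM of each biotinyl-aminoacyl-oxazolone. Conditions were 50 μL HEPES/NaCl/KCl/MgCl2/CaCl2 buffer, 5% acetonitrile, pH 6.9–7.0, room temperature, 90 minutes. Catalytic enhancement, the median kA relative to the uncatalyzed rate, was derived from streptavidin capture, qPCR and Illumina sequencing.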

[2] = test system: biotinyl-Ile-oxazolone; experiment: self-aminoacylation, catalytic enhancement (BIO) (fold over background); higher = more active; k-Seq, kA / k0A0; sequences stand for … in GGGAAUGGAUCCACAUCUACGAAUUC…UUCACUGCAGACUUGACGAAGCUG
Procedure, shortened: as §1

[3] = test system: biotinyl-Trp-oxazolone; experiment: self-aminoacylation, catalytic enhancement (BWO) (fold over background); higher = more active; k-Seq, kA / k0A0; sequences stand for … in GGGAAUGGAUCCACAUCUACGAAUUC…UUCACUGCAGACUUGACGAAGCUG
Procedure, shortened: as §1

[4] = test system: biotinyl-Val-oxazolone; experiment: self-aminoacylation, catalytic enhancement (BVO) (fold over background); higher = more active; k-Seq, kA / k0A0; sequences stand for … in GGGAAUGGAUCCACAUCUACGAAUUC…UUCACUGCAGACUUGACGAAGCUG
Procedure, shortened: as §1

[5] = test system: biotinyl-Leu-oxazolone; experiment: self-aminoacylation, catalytic enhancement (BLO) (fold over background); higher = more active; k-Seq, kA / k0A0; sequences stand for … in GGGAAUGGAUCCACAUCUACGAAUUC…UUCACUGCAGACUUGACGAAGCUG
Procedure, shortened: as §1

[6] = test system: biotinyl-Met-oxazolone; experiment: self-aminoacylation, catalytic enhancement (BMO) (fold over background); higher = more active; k-Seq, kA / k0A0; sequences stand for … in GGGAAUGGAUCCACAUCUACGAAUUC…UUCACUGCAGACUUGACGAAGCUG
Procedure, shortened: as §1

Sequence	self-aminoacylation [1]	self-aminoacylation [2]	self-aminoacylation [3]	self-aminoacylation [4]	self-aminoacylation [5]	self-aminoacylation [6]
AUUACCCUCGUCUUCGAGUGA [Fam2.1 aminoacylation ribozyme variant]	29.4	2.8	7.17	3.24	5.17	5.15
AUUCACCUUGGUCCUCGGGUG [Fam2.2 aminoacylation ribozyme variant]	39.2	3.53	5.17	3.67	8.12	5.93
AUUCACUUAGGUCAUCGGGUC [Fam2.2 aminoacylation ribozyme variant]	0.826	1.04	1.06	1.2	0.969	1.22
AAUACCCUGGCCAUCGAGUGA [Fam2.1 aminoacylation ribozyme variant]	2.33	1.85	3.4	1.64	2.71	2.08
AAGUUUGAUAAUAGUCACAAG [Fam3.1 aminoacylation ribozyme variant]	0.914	0.649	0.877	0.742	0.547	0.716
CCACACUUCAAGCAACCGGCC [Fam1B.1 aminoacylation ribozyme variant]	17.4	3.66	5.33	3.58	2.77	4.29
AAGUUUGCUAAUAGUGGCUAG [Fam3.1 aminoacylation ribozyme variant]	1.52	0.811	0.748	0.862	0.65	0.777
CCACAUUUCUAGCAAUCGGUC [Fam1B.1 aminoacylation ribozyme variant]	1.49	1.83	1.22	1.76	1.4	1.35
AAGUUUGCUAAAAGUCGCAAA [Fam3.1 aminoacylation ribozyme variant]	1.91	1.7	1.32	1.59	1.67	1.87
CUACUUCUAACAAUGGGUCUG [Fam1A.1 aminoacylation ribozyme variant]	0.582	0.833	0.566	0.705	0.697	0.718
AUUACCCAGGUCCUCGAGUGA [Fam2.1 aminoacylation ribozyme variant]	10.3	2.2	3.69	2.15	3.11	2.79
AUUCACCUAGGUGAUCGGGUA [Fam2.2 aminoacylation ribozyme variant]	9.83	2.67	3.59	2.48	3.14	3.18
CUUACCCUGGUCUUCGAGUGA [Fam2.1 aminoacylation ribozyme variant]	17.9	2.29	5	2.64	4.29	3.87
AUUCCCCUGAUCAUCGAGUGA [Fam2.1 aminoacylation ribozyme variant]	8.85	3.81	7.4	4.2	5.83	6.39
UUUCACCUACGUCAUCGGGUG [Fam2.2 aminoacylation ribozyme variant]	31.6	2.88	4.58	3.3	5.75	4.85
AUUCACCUAGGUCCUCGGGCG [Fam2.2 aminoacylation ribozyme variant]	35.3	3.37	3.17	2.7	4.27	4.65
CUACUUCAUACAAUCGAUCUG [Fam1A.1 aminoacylation ribozyme variant]	0.752	0.657	0.601	0.806	0.505	0.653
AUUUCCCUGGUCAUCGAGUGC [Fam2.1 aminoacylation ribozyme variant]	2.11	1.1	1.21	1.08	1.59	1.86
AAGUUUGCAAAUAGUAGCAAG [Fam3.1 aminoacylation ribozyme variant]	1.62	1.27	0.923	0.939	1.07	1.03
ACUGCCCUGGUCAUCGAGUGA [Fam2.1 aminoacylation ribozyme variant]	269	13.4	37.1	14.9	34.1	36
UUUCACCUAGGUCACCGGGUG [Fam2.2 aminoacylation ribozyme variant]	26.7	3.8	5.47	3.87	5.2	3.77
AAUACCCUGGACAUCGAGUGA [Fam2.1 aminoacylation ribozyme variant]	10.5	2.25	5.44	2.25	4.14	3.95
CCACACUUCAUGCAACCGGUC [Fam1B.1 aminoacylation ribozyme variant]	0.916	0.996	0.752	0.981	0.795	0.943
AUUACCCUGGUCAACGACUGA [Fam2.1 aminoacylation ribozyme variant]	0.635	0.653	0.514	0.66	0.523	0.47
AAGUUGGCUAAUGGUCGCAAG [Fam3.1 aminoacylation ribozyme variant]	1.01	1.29	1.23	1.4	1.1	1.28
AGUACCCUGGUCAUCGCGUGA [Fam2.1 aminoacylation ribozyme variant]	128	8.36	20.5	12.2	20.3	19.4

Sequence	self-aminoacylation [1]	self-aminoacylation [2]	self-aminoacylation [3]	self-aminoacylation [4]	self-aminoacylation [5]	self-aminoacylation [6]
CUACUUCAAACAUUCUGUCUG [Fam1A.1 aminoacylation ribozyme variant]	0.851	0.822	0.543	0.79	0.727	0.7
UUUCACCUAGCUCAUCGGGUG [Fam2.2 aminoacylation ribozyme variant]	1.68	2.03	2.5	2.73	2.24	1.77
AUUACCCAGGUCAUCGAGGGA [Fam2.1 aminoacylation ribozyme variant]	1.52	1.36	1.16	1.37	1.48	1.38
AAGUGUGCUAAUAGUCCCAAG [Fam3.1 aminoacylation ribozyme variant]	3.77	1.34	2.02	1.28	1.24	1.17
AAGUUUGCUAUUAGUUGCAAG [Fam3.1 aminoacylation ribozyme variant]	1.46	0.855	1.01	0.874	0.96	0.859
CCACACAUCUAGCAAUCGGUC [Fam1B.1 aminoacylation ribozyme variant]	0.911	0.894	0.615	0.93	0.712	0.797
CUUCUUCAAACAGUCGGUCUG [Fam1A.1 aminoacylation ribozyme variant]	0.711	0.697	0.848	0.771	0.803	0.821
AUUACCCUGGUGUUCGAGUGA [Fam2.1 aminoacylation ribozyme variant]	45.5	2.73	7.61	3.21	6.71	5.65
AUUACCCUGGCCAUCGGGUGA [Fam2.1 aminoacylation ribozyme variant]	49.1	3.8	11.8	6.42	9.65	8.01
AAGGUUGCUAAUAGUCUCAAG [Fam3.1 aminoacylation ribozyme variant]	2.46	1.13	1.52	0.996	0.944	1.05
AUUACCCAGGUCAUCGAGUGU [Fam2.1 aminoacylation ribozyme variant]	2.45	1.65	3.39	2.06	2.71	2.74
CUUCACCUGGGUCAUCGGGUG [Fam2.2 aminoacylation ribozyme variant]	25	2.43	4.89	5	4.82	4.02
GUUUCCCUGGUCAUCGAGUGA [Fam2.1 aminoacylation ribozyme variant]	48.7	6.97	16.2	7.85	14.8	14.6
AAGUUUCCUAAUUGUCGCAAG [Fam3.1 aminoacylation ribozyme variant]	0.96	1.47	0.994	1.38	1.88	1.14
AUUUACCUAGGUCAUCGUGUG [Fam2.2 aminoacylation ribozyme variant]	1.75	0.874	0.691	0.953	1.18	0.995
AUGCACCUAGAUCAUCGGGUG [Fam2.2 aminoacylation ribozyme variant]	10.6	2.13	3.8	2.69	2.64	2.41
AUUCACCUAGGUCAUCGGUGG [Fam2.2 aminoacylation ribozyme variant]	4.26	1.5	1.81	1.52	1.85	1.97
CGACUUCAAACAAUCAGUCUG [Fam1A.1 aminoacylation ribozyme variant]	28.2	0.938	10.2	0.893	1.27	1.01
CCACACUUCAAGUAAUCCGUC [Fam1B.1 aminoacylation ribozyme variant]	0.9	1.06	1.16	1.06	0.839	1.1
CGACACUUCAAGCAAUCGGCC [Fam1B.1 aminoacylation ribozyme variant]	3.39	3.11	3.53	3.32	2.84	1.79
CUACACUUCAAGCAAUGGGUC [Fam1B.1 aminoacylation ribozyme variant]	0.544	0.65	0.47	0.536	0.542	0.494
CCGGACUUCAAGCAAUCGGUC [Fam1B.1 aminoacylation ribozyme variant]	39.3	1.5	26.3	1.71	2.03	1.31
AUUACCCUGGUCUUCCAGUGA [Fam2.1 aminoacylation ribozyme variant]	31.7	3.79	6.46	3.51	5.94	5.48
AAUCACCUAGGUAAUCGGGUG [Fam2.2 aminoacylation ribozyme variant]	14.1	2.64	4.18	2.08	3.17	2.67
CUACUUCGAACAAUCGUUCUG [Fam1A.1 aminoacylation ribozyme variant]	0.268	0.432	0.368	0.49	0.457	0.453
